According to doi:10.1101/2024.07.24.604955:

Biological target: zebrafish Ctla-4, HA-tagged (pCDNA3.1-HA-Ctla-4) (zebrafish)
Experiment: Western blot under non-reducing and reducing conditions

stoichiometry N: 2
Substance: zebrafish Ctla-4, HA-tagged (pCDNA3.1-HA-Ctla-4) (receptor)
